Experimental data: patent publication US20190225692A1 (JUNO THERAPEUTICS, published 2019)
Residue numbers refer to the chain shown, from its start.

Biological target: T1, HLA-A2/E7 (11-19) tetramer (human; HPV 16)
T1 construct: also called E7(11-19) peptide-MHC tetramer; E7 (11-19)-loaded tetramer
Assay: tetramer flow cytometry; transfected 1:1 CD4+ and CD4+/CD8+ Jurkat-derived cells;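 note: cells transiently transfected with TCR plasmids, stained 48 h later with HLA-A*02:01 peptide-MHC tetramer plus anti-CD8 antibody, read by flow cytometry to assess CD8-independent tetramer binding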
Procedure: For transfection, the CD4+ and CD4+/CD8+ cell mixtures were transiently transfected with TCR-encoding plasmids and 48 hours after transfection, cells were assessed by flow cytometry for (1) binding of the target peptide in the context of an MHC molecule (HLA:A02:01) by staining with an E6(29-38) peptide- or an E7(11-19) peptide-MHC tetramer reagent, and/or (2) CD8+ independent binding of the target by co-staining the tetramer-labeled cells with an anti-CD8 antibody.

B1: TCR 43 (codon optimized, cysteine modified version) (TCR, V domains shown)
V domain 1: QKEVEQNSGPLSVPEGAIASLNCTYSDRGSQSFFWYRQYSGKSPELIMFIYSNGDKEDGRFTAQLNKASQYVSLLIRDSQPSDSATYLCAVNVPTSGTYKYIFGTGTRLKVLA
V domain 2: EPEVTQTPSHQVTQMGQEVILRCVPISNHLYFYWYRQILGQKVEFLVSFYNNEISEKSEIFDDQFSVERPDGSNFTLKIRSTKLEDSAMYFCASTPRDSYEQYFGPGTRLTVTE
% cells in E7 tet+/CD8+ quadrant: 3.82%
% cells in E7 tet+/CD8- quadrant: 1.88%
% cells in E7 tet-/CD8+ quadrant: 37.6%
% cells in E7 tet-/CD8- quadrant: 56.7%

B2: TCR 48 (codon optimized, cysteine modified version) (TCR, V domains shown)
V domain 1: QKEVEQDPGPLSVPEGAIVSLNCTYSNSAFQYFMWYRQYSRKGPELLMYTYSSGNKEDGRFTAQVDKSSKYISLFIRDSQPSDSATYLCAMRIQGAQKLVFGQGTRLTINP
V domain 2: B1 V domain 2 with P96G, D98V
% cells in E7 tet+/CD8+ quadrant: 5.36%
% cells in E7 tet+/CD8- quadrant: 1.29%
% cells in E7 tet-/CD8+ quadrant: 37%
% cells in E7 tet-/CD8- quadrant: 56.4%

B3: TCR 36 (codon optimized, cysteine modified version) (TCR, V domains shown)
V domain 1: RKEVEQDPGPFNVPEGATVAFNCTYSNSASQSFFWYRQDCRKEPKLLMSVYSSGNEDGRFTAQLNRASQYISLLIRDSKLSDSATYLCVVNRDNYGQNFVFGPGTRLSVLP
V domain 2: B1 V domain 2 with S94M, P96G, D98S, S99N
% cells in E7 tet+/CD8+ quadrant: 23.4%
% cells in E7 tet+/CD8- quadrant: 16.7%
% cells in E7 tet-/CD8+ quadrant: 25.4%
% cells in E7 tet-/CD8- quadrant: 34.5%

B4: TCR 47 (codon optimized, cysteine modified version) (TCR, V domains shown)
V domain 1: QKEVEQNSGPLSVPEGAIASLNCTYSDRGSQSFFWYRQYSGKSPELIMFIYSNGDKEDGRFTAQLNKASQYVSLLIRDSQPSDSATYLCAVNLLSGSARQLTFGSGTQLTVLP
V domain 2: B1 V domain 2 with S94M, P96G, D98T, S99T
% cells in E7 tet+/CD8+ quadrant: 1.98%
% cells in E7 tet+/CD8- quadrant: 0.71%
% cells in E7 tet-/CD8+ quadrant: 40.6%
% cells in E7 tet-/CD8- quadrant: 56.7%

B5: TCR 40 (codon optimized, cysteine modified version) (TCR, V domains shown)
V domain 1: GQQVMQIPQYQHVQEGEDFTTYCNSSTTLSNIQWYKQRPGGHPVFLIQLVKSGEVKKQKRLTFQFGEAKKNSSLHITATQTTDVGTYFCAGRNNFNKFYFGSGTKLNVKP
V domain 2: B1 V domain 2 with S94I, P96A, D98S
% cells in E7 tet+/CD8+ quadrant: 7.84%
% cells in E7 tet+/CD8- quadrant: 1.37%
% cells in E7 tet-/CD8+ quadrant: 42.4%
% cells in E7 tet-/CD8- quadrant: 48.4%

B6: TCR 33 (codon optimized, cysteine modified version) (TCR, V domains shown)
V domain 1: B1 V domain 1 with V93A, P94H, T95H, S96T, T98G, Y99F, Y101T, T105A, K110F, L112K
V domain 2: B1 V domain 2 with S99T
% cells in E7 tet+/CD8+ quadrant: 22.6%
% cells in E7 tet+/CD8- quadrant: 14%
% cells in E7 tet-/CD8+ quadrant: 12.8%
% cells in E7 tet-/CD8- quadrant: 50.6%

B7: TCR 42 (codon optimized, cysteine modified version) (TCR, V domains shown)
V domain 1: B5 V domain 1 with R92P, N93D
V domain 2: B1 V domain 2 with S94K, P96S, D98S
% cells in E7 tet+/CD8+ quadrant: 1.21%
% cells in E7 tet+/CD8- quadrant: 1.65%
% cells in E7 tet-/CD8+ quadrant: 39.5%
% cells in E7 tet-/CD8- quadrant: 57.4%

B8: TCR 49 (codon optimized, cysteine modified version) (TCR, V domains shown)
V domain 1: B1 V domain 1 with V93I, P94G
V domain 2: B1 V domain 2 with D98Y
% cells in E7 tet+/CD8+ quadrant: 5.54%
% cells in E7 tet+/CD8- quadrant: 3.06%
% cells in E7 tet-/CD8+ quadrant: 27.2%
% cells in E7 tet-/CD8- quadrant: 64.3%

B9: TCR 39 (codon optimized, cysteine modified version) (TCR, V domains shown)
V domain 1: GQQLNQSPQSMFIQEGEDVSMNCTSSSIFNTWLWYKQEPGEGPVLLIALYKAGELTSNGRLTAQFGITRKDSFLNISASIPSDVGIYFCAGYSSSNDYKLSFGAGTTVTVRA
V domain 2: EPEVTQTPSHQVTQMGQEVILRCVPISNHLYFYWYRQILGQKVEFLVSFYNNEISEKSEIFDDQFSVERPDGSNFTLKIRSTKLEDSAMYFCASTPRDRGKEAFFGQGTRLTVVE
% cells in E7 tet+/CD8+ quadrant: 12.3%
% cells in E7 tet+/CD8- quadrant: 2.61%
% cells in E7 tet-/CD8+ quadrant: 37%
% cells in E7 tet-/CD8- quadrant: 48%

B10: TCR 35 (codon optimized, cysteine modified version) (TCR, V domains shown)
V domain 1: KDQVFQPSTVASSEGAVVEIFCNHSVSNAYNFFWYLHFPGCAPRLLVKGSKPSQQGRYNMTYERFSSSLLILQVREADAAVYYCAVAGDYKLSFGAGTTVTVRA
V domain 2: DSGVTQTPKHLITATGQRVTLRCSPRSGDLSVYWYQQSLDQGLQFLIQYYNGEERAKGNILERFSAQQFPDLHSELNLSSLELGDSALYFCASTTSGDSSYNEQFFGPGTRLTVLE
% cells in E7 tet+/CD8+ quadrant: 14.5%
% cells in E7 tet+/CD8- quadrant: 7.18%
% cells in E7 tet-/CD8+ quadrant: 35.1%
% cells in E7 tet-/CD8- quadrant: 43.2%

B11: TCR 41 (codon optimized, cysteine modified version) (TCR, V domains shown)
V domain 1: RKEVEQDPGPFNVPEGATVAFNCTYSNSASQSFFWYRQDCRKEPKLLMSVYSSGNEDGRFTAQLNRASQYISLLIRDSKLSDSATYLCVVTFALTGGFKTIFGAGTRLFVKA
V domain 2: EPEVTQTPSHQVTQMGQEVILRCVPISNHLYFYWYRQILGQKVEFLVSFYNNEISEKSEIFDDQFSVERPDGSNFTLKIRSTKLEDSAMYFCASNPRDRVSYEQYFGPGTRLTVTE
% cells in E7 tet+/CD8+ quadrant: 6.07%
% cells in E7 tet+/CD8- quadrant: 2.41%
% cells in E7 tet-/CD8+ quadrant: 43.6%
% cells in E7 tet-/CD8- quadrant: 47.9%

B12: TCR 31 (codon optimized, cysteine modified version) (TCR, V domains shown)
V domain 1: DQQVKQNSPSLSVQEGRISILNCDYTNSMFDYFLWYKKYPAEGPTFLISISSIKDKNEDGRFTVFLNKSAKHLSLHIVPSQPGDSAVYFCAASERGTYKYIFGTGTRLKVLA
V domain 2: GAGVSQSPSNKVTEKGKDVELRCDPISGHTALYWYRQSLGQGLEFLIYFQGNSAPDKSGLPSDRFSAERTGGSVSTLTIQRTQQEDSAVYLCASSRFLGSTDTQYFGPGTRLTVLE
% cells in E7 tet+/CD8+ quadrant: 4.52%
% cells in E7 tet+/CD8- quadrant: 0.042%
% cells in E7 tet-/CD8+ quadrant: 21.1%
% cells in E7 tet-/CD8- quadrant: 74.3%

B13: TCR 46 (codon optimized, cysteine modified version) (TCR, V domains shown)
V domain 1: AQSVTQLDSQVPVFEEAPVELRCNYSSSVSVYLFWYVQYPNQGLQLLLKYLSGSTLVKGINGFEAEFNKSQTSFHLRKPSVHISDTAEYFCAVSPSSGTYKYIFGTGTRLKVLA
V domain 2: GAGVSQTPSNKVTEKGKYVELRCDPISGHTALYWYRQSLGQGPEFLIYFQGTGAADDSGLPNDRFFAVRPEGSVSTLKIQRTERGDSAVYLCASSLYLGGSETQYFGPGTRLLVLE
% cells in E7 tet+/CD8+ quadrant: 1.27%
% cells in E7 tet+/CD8- quadrant: 1.21%
% cells in E7 tet-/CD8+ quadrant: 38.9%
% cells in E7 tet-/CD8- quadrant: 58.6%

B14: TCR 44 (codon optimized, cysteine modified version) (TCR, V domains shown)
V domain 1: GQNIDQPTEMTATEGAIVQINCTYQTSGFNGLFWYQQHAGEAPTFLSYNVLDGLEEKGRFSSFLSRSKGYSYLLLKELQMKDSASYLCAQYSGGYQKVTFGTGTKLQVIP
V domain 2: DSGVTQTPKHLITATGQRVTLRCSPRSGDLSVYWYQQSLDQGLQFLIQYYNGEERAKGNILERFSAQQFPDLHSELNLSSLELGDSALYFCASSGTPDTQYFGPGTRLTVLE
% cells in E7 tet+/CD8+ quadrant: 2.96%
% cells in E7 tet+/CD8- quadrant: 1.43%
% cells in E7 tet-/CD8+ quadrant: 39.9%
% cells in E7 tet-/CD8- quadrant: 55.7%

B15: TCR 32 (codon optimized, cysteine modified version) (TCR, V domains shown)
V domain 1: TQLLEQSPQFLSIQEGENLTVYCNSSSVFSSLQWYRQEPGEGPVLLVTVVTGGEVKKLKRLTFQFGDARKDSSLHITAAQPGDTGLYLCAGGSNYKLTFGKGTLLTVNP
V domain 2: DSGVTQTPKHLITATGQRVTLRCSPRSGDLSVYWYQQSLDQGLQFLIQYYNGEERAKGNILERFSAQQFPDLHSELNLSSLELGDSALYFCASSVGGDHSDEQFFGPGTRLTVLE
% cells in E7 tet+/CD8+ quadrant: 25.3%
% cells in E7 tet+/CD8- quadrant: 33.5%
% cells in E7 tet-/CD8+ quadrant: 7.53%
% cells in E7 tet-/CD8- quadrant: 33.7%

B16: TCR 34 (codon optimized, cysteine modified version) (TCR, V domains shown)
V domain 1: ELKVEQNPLFLSMQEGKNYTIYCNYSTTSDRLYWYRQDPGKSLESLFVLLSNGAVKQEGRLMASLDTKARLSTLHITAAVHDLSATYFCAVSGTYKYIFGTGTRLKVLA
V domain 2: ETGVTQSPTHLIKTRGQQVTLRCSSQSGHNTVSWYQQALGQGPQFIFQYYREEENGRGNFPPRFSGLQFPNYSSELNVNALELDDSALYLCASSSYAGSYEQYFGPGTRLTVTE
% cells in E7 tet+/CD8+ quadrant: 26.3%
% cells in E7 tet+/CD8- quadrant: 26%
% cells in E7 tet-/CD8+ quadrant: 6.85%
% cells in E7 tet-/CD8- quadrant: 40.9%

B17: TCR 45 (codon optimized, cysteine modified version) (TCR, V domains shown)
V domain 1: GQQVMQIPQYQHVQEGEDFTTYCNSSTTLSNIQWYKQRPGGHPVFLIQLVKSGEVKKQKRLTFQFGEAKKNSSLHITATQTTDVGTYFCAGSSGAGSYQLTFGKGTKLSVIP
V domain 2: GAGVSQSPSNKVTEKGKDVELRCDPISGHTALYWYRQRLGQGLEFLIYFQGNSAPDKSGLPSDRFSAERTGESVSTLTIQRTQQEDSAVYLCASSLYLGTTGELFFGEGSRLTVLE
% cells in E7 tet+/CD8+ quadrant: 22.4%
% cells in E7 tet+/CD8- quadrant: 16.9%
% cells in E7 tet-/CD8+ quadrant: 19.5%
% cells in E7 tet-/CD8- quadrant: 41.3%

B18: TCR 50 (codon optimized, cysteine modified version) (TCR, V domains shown)
V domain 1: GEDVEQSLFLSVREGDSSVINCTYTDSSSTYLYWYKQEPGAGLQLLTYIFSNMDMKQDQRLTVLLNKKDKHLSLRIADTQTGDSAIYFCAESPPGTYKYIFGTGTRLKVLA
V domain 2: DSGVTQTPKHLITATGQRVTLRCSPRSGDLSVYWYQQSLDQGLQFLIHYYNGEERAKGNILERFSAQQFPDLHSELNLSSLELGDSALYFCASSATRDAYGYTFGSGTRLTVVE
% cells in E7 tet+/CD8+ quadrant: 3.28%
% cells in E7 tet+/CD8- quadrant: 0.25%
% cells in E7 tet-/CD8+ quadrant: 30.7%
% cells in E7 tet-/CD8- quadrant: 65.8%

B19: TCR 37 (codon optimized, cysteine modified version) (TCR, V domains shown)
V domain 1: ELKVEQNPLFLSMQEGKNYTIYCNYSTTSDRLYWYRQDPGKSLESLFVLLSNGAVKQEGRLMASLDTKARLSTLHITAAVHDLSATYFCAGYSGAGSYQLTFGKGTKLSVIP
V domain 2: GAGVSQSPRYKVAKRGQDVALRCDPISGHVSLFWYQQALGQGPEFLTYFQNEAQLDKSGLPSDRFFAERPEGSVSTLKIQRTQQEDSAVYLCASSLLLGAYGYTFGSGTRLTVVE
% cells in E7 tet+/CD8+ quadrant: 25.5%
% cells in E7 tet+/CD8- quadrant: 19.5%
% cells in E7 tet-/CD8+ quadrant: 22.7%
% cells in E7 tet-/CD8- quadrant: 32.2%
